The values that follow come from PMC11066524, “The molecular determinants of classical pathway complement inhibition by OspEF-related proteins of Borrelia burgdorferi” (The Journal of Biological Chemistry, 2024).

Positions count from the first letter of the chain named.

Settings in all cases: both partners purified
The target of experiment [1] is T1, full-length activated human C1s (human, UniProt P09871 16-437; P09871 438-688).
T1 construct: also called active C1s
T1 sequence 1: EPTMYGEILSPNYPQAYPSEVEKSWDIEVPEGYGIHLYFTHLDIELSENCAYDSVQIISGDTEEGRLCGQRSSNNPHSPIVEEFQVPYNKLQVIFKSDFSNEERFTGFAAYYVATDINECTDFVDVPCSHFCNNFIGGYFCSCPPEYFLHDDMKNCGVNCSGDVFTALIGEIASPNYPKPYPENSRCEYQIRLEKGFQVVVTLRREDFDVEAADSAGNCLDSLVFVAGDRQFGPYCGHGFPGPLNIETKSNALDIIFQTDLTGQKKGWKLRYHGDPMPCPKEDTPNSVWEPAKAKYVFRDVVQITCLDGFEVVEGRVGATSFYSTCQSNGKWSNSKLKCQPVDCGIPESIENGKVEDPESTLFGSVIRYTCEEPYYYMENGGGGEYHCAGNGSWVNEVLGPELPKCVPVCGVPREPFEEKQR
T1 sequence 2: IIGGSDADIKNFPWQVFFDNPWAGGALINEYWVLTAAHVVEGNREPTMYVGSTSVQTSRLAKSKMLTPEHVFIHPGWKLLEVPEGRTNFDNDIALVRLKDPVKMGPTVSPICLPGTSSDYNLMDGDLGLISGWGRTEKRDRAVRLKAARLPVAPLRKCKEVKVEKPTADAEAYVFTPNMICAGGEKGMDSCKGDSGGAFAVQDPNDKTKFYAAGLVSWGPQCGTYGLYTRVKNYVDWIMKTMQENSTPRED
The experiment is described as follows: HDX-MS; ElpQ_(19-343) alone or with a 3-fold molar excess of full-length activated C1s, on ice ~20 min before analysis; exchange 0 s to 2 h at 20 °C in D2O buffer (25 mM phosphate pD 7.5, 0.1 M NaCl); triplicate.

The target in experiment [2] is T1, full-length activated human C1s. The experiment is described as follows: SPR; steady-state fit (K_(D, ss)), 1:1 model, of the same injection series as a2; ElpQ proteins amine-coupled to a CMD200 chip; activated C1s or C1r 0-200 nM; HBS-T Ca2+ (10 mM Hepes pH 7.3, 140 mM NaCl, 0.005% Tween-20, 5 mM CaCl2). (In general: In SPR one partner is held on a chip, and binding of the other changes the refractive index at the surface.)

Experiment [3] concerns the target T2, activated full-length human C1r (human, UniProt P00736 18-705).
T2 construct: as far as I recall it is cleaved at Arg463-Ile464 of P00736 and lacks the signal peptide (1-17); also called active C1r
T2 sequence: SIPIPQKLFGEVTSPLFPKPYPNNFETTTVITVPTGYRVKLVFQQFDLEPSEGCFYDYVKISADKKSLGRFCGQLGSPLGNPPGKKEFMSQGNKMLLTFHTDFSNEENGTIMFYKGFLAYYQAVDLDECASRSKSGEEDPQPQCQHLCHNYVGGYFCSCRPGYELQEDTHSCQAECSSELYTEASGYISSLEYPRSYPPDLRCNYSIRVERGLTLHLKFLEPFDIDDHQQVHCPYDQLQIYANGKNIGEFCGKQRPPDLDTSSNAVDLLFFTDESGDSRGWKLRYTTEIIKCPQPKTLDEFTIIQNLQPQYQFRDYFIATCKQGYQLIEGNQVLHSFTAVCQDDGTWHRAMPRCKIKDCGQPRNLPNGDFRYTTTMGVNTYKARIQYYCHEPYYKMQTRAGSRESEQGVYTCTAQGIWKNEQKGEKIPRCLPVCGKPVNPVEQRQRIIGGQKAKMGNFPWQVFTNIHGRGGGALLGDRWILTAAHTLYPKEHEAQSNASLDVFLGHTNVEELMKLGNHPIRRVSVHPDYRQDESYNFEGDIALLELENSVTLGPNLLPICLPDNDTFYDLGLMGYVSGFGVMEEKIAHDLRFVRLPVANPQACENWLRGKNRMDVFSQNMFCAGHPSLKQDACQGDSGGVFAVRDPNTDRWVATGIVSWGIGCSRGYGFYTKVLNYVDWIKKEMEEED
The experiment is described as above.

Experiment [4] has as its target T1, full-length activated human C1s. The experiment is described as follows: SPR; kinetic fit (K_(D, kin)), 1:1 Langmuir; ElpQ/ElpB proteins amine-coupled to a CMD200 chip; activated C1s or C1r injected 0-200 nM, multicycle; HBS-T Ca2+ (10 mM Hepes pH 7.3, 140 mM NaCl, 0.005% Tween-20, 5 mM CaCl2); 30 μl/min; association 120 s (C1r 480 s), dissociation 180 s.
Experiment [5] addresses T2, activated full-length human C1r. The description is as above.

B1: full-length ElpQ (ElpQ_(19-343)) (natural protein)
chain: KNFATGKDIKQNSEGKIKGFVNKILDPVKDKIASSGTKVDEVAKKLQEEEKEELMQGDDPNGSGINPPPVLPENIHNNALVLKAIEQSDGQQEKKVEEAEAKVEENKEKQENTEENIKEKEIIDEQNKQELAKAKEEEQQKEQKRHQEEQQRKAKAEKEKREREEAEQQKRQQEEEEKRQVDNQIKTLIAKIDEINENIDVIKWQTTVGPQGVIDRITGPVYDDFTNGNNSIRETWEGLEEESEDEGLGKLLKELSDARDALRTKLNEGNKPYTGYEEPKLKESVNVSEIKEDLEKLKSKLEEVKKYLKDSSKFEEIKGYISDSQ
notes: ElpQ, outer surface lipoprotein of the OspEF-related protein family, Borrelia burgdorferi strain B31, UniProt Q9S035, residues 19-343 (325 residues); also called Apo-ElpQ_(19-343)
As for B1, in experiment [1], the binding result was “binds”.

B2: ElpQ_(181-340) (domain or fragment)
chain: REEAEQQKRQQEEEEKRQVDNQIKTLIAKIDEINENIDVIKWQTTVGPQGVIDRITGPVYDDFTNGNNSIRETWEGLEEESEDEGLGKLLKELSDARDALRTKLNEGNKPYTGYEEPKLKESVNVSEIKEDLEKLKSKLEEVKKYLKDSSKFEEIKGYIS
notes: also called ElpQ truncation lacking residues 341 to 343
Usually Kd stands for the equilibrium constant for the complex coming apart. High values mean lower affinity, low ones higher affinity. In general, koff refers to a measure of how fast the partners let go of each other. High values mean fast dissociation, low ones slow dissociation. A word on the kon: it is a measure of how fast the partners come together. A lower kon goes with slower complex formation. As for B2, the Kd in experiment [2] came out at 0.0556 µM; in experiment [3], 0.181 µM; in experiment [4], 0.0208 µM; in experiment [5] it was 0.113 µM. Moreover, the koff in experiment [4] was 0.00794 s⁻¹; in experiment [5], 0.00277 s⁻¹. In addition, the kon in experiment [4] is 425000 M⁻¹ s⁻¹; in experiment [5], 26400 M⁻¹ s⁻¹.

B3: ElpQA4 (domain or fragment, Borrelia burgdorferi strain B31, UniProt Q9S035 181-343, looked up)
chain: REEAEQQKRQQEEEEKRQVDNQIKTLIAKIDEINENIDVIKWQTTVGPQGVIDRITGPVYDDFTNGNNSIRATWEGLAAESADEGLGKLLKELSDARDALRTKLNEGNKPYTGYEEPKLKESVNVSEIKEDLEKLKSKLEEVKKYLKDSSKFEEIKGYISDSQ
notes: Synthetic E. coli codon-optimised gene fragment cloned BamHI/NotI into pT7HMT
Consider B3, for which the Kd in experiment [2] was approximately 0.464 µM. In experiment [4], the Kd amounted to 0.173 µM, the koff stood at 0.0103 s⁻¹ and the kon stood at 60100 M⁻¹ s⁻¹. In experiment [5], the koff came out at 0.493 s⁻¹ and the kon came out at 2440 M⁻¹ s⁻¹.

B4: ElpQ_(181-343) (domain or fragment)
chain: B3 chain with A72E, A78E, A79E, A82E
notes: pT7HMT adds, as far as I recall, an N-terminal His-Myc tag with a TEV site that is usually cleaved; also called C-terminal truncation construct of ElpQ
B4: the Kd in experiment [2] turned out to be 0.0393 µM; in experiment [3], 0.221 µM; in experiment [4] it was 0.0145 µM; in experiment [5], 0.151 µM. The results for the koff in experiment [4] and in experiment [5] were 0.00683 s⁻¹ and 0.00316 s⁻¹, respectively. Also, the figures for the kon in experiment [4] and in experiment [5] were 477000 M⁻¹ s⁻¹ and 21700 M⁻¹ s⁻¹, respectively.

B5: ElpQ_(Δ290-296) (domain or fragment, Borrelia burgdorferi strain B31, UniProt Q9S035 181-343, looked up)
chain: REEAEQQKRQQEEEEKRQVDNQIKTLIAKIDEINENIDVIKWQTTVGPQGVIDRITGPVYDDFTNGNNSIRETWEGLEEESEDEGLGKLLKELSDARDALRTKLNEGNKPKLKESVNVSEIKEDLEKLKSKLEEVKKYLKDSSKFEEIKGYISDSQ
notes: Synthetic E. coli codon-optimised gene fragment cloned BamHI/NotI into pT7HMT; also called Δ290 to 296
In experiment [2], B5 came in with a Kd of approximately 0.665 µM. In experiment [4], this molecule gave a Kd of approximately 0.623 µM, a koff of 0.00746 s⁻¹ and a kon of 22500 M⁻¹ s⁻¹.
